Assay results reported in US7604970B2, “Variants of the PapM polypeptide of bacteria of the Streptomyces genus” (Aventis Pharma S.A., priority 2002, dated 2009).
Where two headings read alike, the source gives them in different places.

Tests used:
[1] = Km and Vmax of purified PapM methylases, methylation 1; assay type: biochemical, S. pristinaespiralis
Protocol: (§1) The enzyme fractions to be assayed (1 to 20 units) are incubated for 30 min at 27° C. in a total volume of 200 μl of 50 mM bis-tris-propane buffer, pH 6.8, containing SAM (200 μM) the methyl group of which is radioactively labeled with the carbon 14 isotope (2 Ci/mol), in the presence of 4-amino-L-phenylalanine (1 mM) for assaying methylation 1, or of 4-methylamino-L-alanine (2.5 mM) for assaying methylation 2.
(§2) The reaction is stopped by adding 16 μl of 37% hydrochloric acid and then 20 μl of sodium heptanesulfonate at 240 g/l. After centrifugation, 150 μl of supernatant are injected into the HPLC system in the following gradient mode: • Mobile phase: Eluent A=1.2 g of heptanesulfonate+2.5 ml of glacial acetic acid+water (qs 1 000 ml). Eluent B=1.2 g of sodium heptanesulfonate+2.5 ml of glacial acetic acid+300 ml of acetonitrile+water (qs 1 000 ml). The gradient is produced in the following way: at t=0, 30% of eluent B; t=16 (min), 30% of eluent B; t=17 (min), 100% of eluent B; t=20 min, 100% of eluent B; t=21 min, 30% of eluent B; t=25 (min), 30% of eluent B. • Stationary phase: Nucleosil® C 18 5 μm×4.6 mm column (Macherey-Nagel)
(§3) On leaving the column, the substrates and products of the enzyme reaction are quantified by absorption at 254 nm. This detection is coupled to an on-line radiochemical detection using a Berthold LB506 detector equipped with a solid scintillation cell of the GT400-U4 type. This makes it possible to specifically follow the incorporation of radioactive methyl groups into the reaction products.
(§4) The unit of enzyme activity for methylation 1 (and also for methylation 2) is defined as the amount of enzyme required to incorporate 1 nmol of methyl group into 4-amino-L-phenylalanine (or into 4-methylamino-L-phenylalanine).
(§5) The conditions for assaying the methylation activity are identical to those described in example 7-1, with the exception of the 2 mM concentration of SAM, the methyl group of which is radioactively labeled with the carbon 14 isotope (2 Ci/mol). Concentration ranges varying from 0.1 to 60 mM for each of the substrates 4-amino-L-phenylalanine for methylation 1 and 4-methylamino-L-phenylalanine for methylation 2 are prepared. For each concentration of each substrate, the reaction rate is measured and expressed in nmol converted per hour and per mg of proteins.
(§6) The values of the kinetics constants are deduced from the Michaelis-Menten curves plotted using the Enzfiter software.

[2] = Km and Vmax of purified PapM methylases, methylation 2; assay type: biochemical, S. pristinaespiralis
Protocol: as §1, §2, §3, §4, §5, §6

[3] = Enzymatic screening: simultaneous assay of the two methylation activities of PapM (ratio r); assay type: biochemical, S. pristinaespiralis
Source text: The ratio of the respective rates V1 and V2 of methylation of L-PAPA and of L-MMPAPA is dependent on the kinetic parameters of PapM (Km1 and Vmax1 for L-PAPA, Km2 and Vmax2 for L-MMPAPA), and is also dependent on the respective concentrations S1 and S2 of L-PAPA and of L-MMPAPA, according to the formula: V1/V2=(Vmax1//Km1)[S1]/(Vmax2/Km2)[S2]
Simultaneous measurement of the two rates of methylation V1 and V2 at fixed concentrations of S1 and S2 makes it possible to determine the ratio of the kinetic constants of PapM for L-PAPA and L-MMPAPA. This ratio is independent of the amount of PapM used in the assay. When the selectivity of the mutated PapM enzyme increases for L-PAPA, the ratio V1/V2 should increase and, conversely, this ratio should decrease when the mutated PapM enzyme preferentially methylates L-MMPAPA.
Finally, in order to avoid small variations in Km and to, on the contrary, promote either large variations in Km or modifications in the Vmax values, the concentrations of L-PAPA and L-MMPAPA are fixed at approximately 6 times the Km in order to be under conditions of saturation. Under such conditions, with the wild-type PapM enzyme, the rate of methylation 1 and the rate of methylation 2 are virtually equal.
The simultaneous assaying of the two methylation activities of PapM is described in example 7.1. This assaying of the methylase activities of PapM is carried out in the presence of 1.5 mM L-PAPA, 3 mM L-MMPAPA and […].
The 96-well plates of the library of E. coli clones producing the mutated PapM enzymes, prepared as described in example 3, are thawed at 23° C. Next, 25 μl of mixture A are added to the 200 μl of the culture on LB medium contained in each well. Mixture A is obtained by adding successively (1) 3 ml of 50 mM Bis-Tris-Propane buffer, pH 10, in which have been dissolved 12 mg of L-PAPA, and 71 mg of (DL)-MMPAPA in dihydrochloride form and prepared as described in WO 96/01901-A1, (2) 0.7 ml of 4 mM SAM in water, (3) 0.7 ml of [^14C-Me]-SAM at 25 μCi/ml and 60 mCi/mmol (AMERSHAM), (4) 0.6 ml of 100 mM Bis-Tris-Propane buffer, pH 6.8, and (5) 56 mg of the disodium salt of EDTA. The amounts are given for the preparation of a 5 ml volume of mixture A. The plate is then sealed with an adhesive film, and then incubated at 27° C. for 2 hours. The reaction is stopped with 40 μl of a stop solution. The stop solution (for a volume of 4 ml) is obtained by mixing 2.2 ml of a 24 mg/ml sodium heptanesulfonate solution in water with 1.8 ml of concentrated hydrochloric acid. After centrifugation of the plates at 3 000 g for 5 min, approximately 100 μl of the supernatant of each well are analyzed by HPLC in the system described in example 7.1.
For each well, the respective areas A1 and A2 of the MMPAPA and DMPAPA peaks derived from recording the radiochemical detection are integrated. A ratio r is then calculated in the following way: r=A1/(A1+A2) In the case of the wild-type PapM methylase, r=0.50±0.05.

[4] = Blanc et al., 1997, cited from earlier work
[5] = Ratios of kinetic constants and enzyme efficiencies, methylation 1 / methylation 2; assay type: biochemical, S. pristinaespiralis
Protocol: as §5, §6
For each mutant form of the enzyme, the enzyme efficiency of each methylation reaction (methylation 1 and methylation 2) was determined. This efficiency is defined by the ratio Vm1/Km1 (methylation 1) or Vm2/Km2 (methylation 2).
Then, for each form, the ratio of the enzyme efficiencies (methylation reaction 1/methylation reaction 2) was determined. This ratio is equal to Vm1.Km2/Vm2.Km1.

[6] = Competition assay between the two substrates; assay type: biochemical, S. pristinaespiralis; details: both substrates present: 1 mM 4-amino-L-phenylalanine, 2 mM 4-methylamino-L-phenylalanine, 2 mM SAM
Protocol: The ratio of the rates of conversion of the two competitive substrates is given by the formula: V1/V2=(Kcat1/Km1)[S1]/(Kcat2/Km2)[S2]
The amount of substrate and of enzyme brought into play is thus avoided by taking care not to convert not more than 2% of each of the substrates.
Using the same conditions for assaying the methylation activity as those described in example 7-1, with the exception of the concentration of SAM, which is 2 mM, and the methyl group of which is radioactively labeled with the carbon 14 isotope (2.5 Ci/mol), and with the simultaneous presence of the two substrates at the concentrations, for 4-amino-L-phenylalanine, of 1 mM and, for 4-methylamino-L-phenylalanine, of 2 mM, the rate of each of the reactions could thus be determined.
The assays were carried out simultaneously on the mutants described in examples 4 to 6, using the same substrate solutions.

[7] = Blanc et al., 1997, cited from earlier work; remark: listed apart in the source
[8] = purified enzyme, 2 mM SAM, substrate 0.1 to 60 mM

B1: 4-amino-L-phenylalanine (phenyl N)-methyltransferase (protein, UniProt P72542 1-292, looked up)
4-amino-L-phenylalanine/4-meth …: MTAAAPTLAQALDEATGQLTGAGITADAARADTRLLAAHACQVAPGDLDTCLAGPVPPRFWHYVRRRLTREPAERIVGHAYFMGHRFDLAPGVFVPKPETEEITRDAIARLEALVRRGTTAPLVVDLCAGPGTMAVTLARHVPAARVLGIELSQAAARAARRNARGTGARIVQGDARDAFPELSGTVDLVVTNPPYIPIGLRTSAPEVLEHDPPLALWAGEEGLGMIRAMERTAARLLAPGGVLLLEHGSYQLASVPALFRATGRWSHASSRPTCNDGCLTAVRNHTCAPPA
[1]; Table 7
  Km1: 0.5
  Vm1: 112 600
  Vm1/Km1 (enzyme efficiency, methylation 1): 225 200
[1]; purified enzyme, 2 mM SAM
  Vm1 (PAPA): 112 600 nmol/h/mg
[1]; [8]
  Km1 (PAPA): 0.5 mM
[2]; Table 7
  Km2: 0.55
  Vm2: 114 000
  Vm2/Km2 (enzyme efficiency, methylation 2): 207 270
[2]; purified enzyme, 2 mM SAM
  Vm2 (MMPAPA): 114 000 nmol/h/mg
[2]; [8]
  Km2 (MMPAPA): 0.55 mM
[3]; 7 sequenced clones, experiment in which wild-type ratio was 0.40
  Ratio (r redetermined): 0.40
[3]; after recloning of papM genes into pMTL23, E. coli DH5α, same experiment as wild-type
  ratio of the two methylation activities (r): 0.40
[3]; screening of E. coli cultures, 1.5 mM L-PAPA, 3 mM L-MMPAPA
  ratio r=A1/(A1+A2) of MMPAPA and DMPAPA peak areas: 0.50±0.05
[4]
  maximum velocity (Vmax) for L-MMPAPA: 71 μmol per hour and per mg of PapM
[4]; read-out: Michaelis constant (Km) for L-MMPAPA
  Km: 530 µM
[5]
  ratio of the enzyme efficiencies (methylation reaction 1/methylation reaction 2), Vm1.Km2/Vm2.Km1: 1.1
[5]; Table 5
  Ratio Km2/Km1: 1.1
  Ratio Vm1/Vm2: 0.99
[5]; Table 7
  Vm1 · Km2 / Vm2 · Km1 (ratio of enzyme efficiencies): 1.08
[6]
  first methylation reaction relative to the second (selectivity): catalyzes the two reactions in a similar manner
[7]
  maximum velocity (Vmax) for L-PAPA: 55 μmol per hour and per mg of PapM
[7]; read-out: Michaelis constant (Km) for L-PAPA
  Km: 240 µM
